From publication PMC7987023 (bioRxiv, 2021)

Target: SARS-CoV-2 6P stabilized S trimer (SARS-CoV-2, Wuhan-Hu-1 reference, UniProt P0DTC2, stabilised)
Assay: cryo-EM structure

B1: C051 Fab (Fab, V domains shown)
VH: EVQLVESGGGLIQAGGSLRLSCAASGFGVRNNYMSWVRQAPGKGLEWVSVIYSGGTTYYADSVKGRFTISRDNSKNTVFLQMNSLRAEDTAVYYCAREGDVEGFSDLWSGYSRDRYYFDYWGQGTLVTVSS
VL: QSVLTQPASVSGSPGQSITFSCTGTSSDVGGYNYVSWYQQYPGKAPKLLIYDVTNRPSGVSDRFSGSKSGNTASLTISGLQAEDEADYYCSSFTSSNTRVFGTGTKVTVL
binding result: binds
